The assay concerns the target T1, human epidermal growth factor receptor (EGFR) (Homo sapiens, UniProt P00533).
T1 construct: human epidermal growth factor receptor, used as a 'monovalent antigen' in solution
Kind of assay: SPR; ProteOn XPR36 one-shot kinetics; antibodies amine-coupled onto GLC chips, EGFR injected as monovalent analyte for 3 min (5fold and 3fold series, top 56 nM; over matuzumab 3fold series, top 278 nM); 25°C, PBS + 0.01% Tween-20; global Langmuir model with mass transport; apparent. Conditions: both partners purified. Background: In SPR one partner is held on a chip, and binding of the other changes the refractive index at the surface.

Values joined by “and” are separate entries in the source; they are usually repeats but may differ in a detail not shown here. Equal entries are not always repeated.

B1: duligotuzumab (DL11) Fab fragment (Fab, V domains shown)
VH: EVQLVESGGGLVQPGGSLRLSCAASGFTLSGDWIHWVRQAPGKGLEWLGEISAAGGYTDYADSVKGRFTISADTSKNTAYLQMNSLRAEDTAVYYCARESRVSFEAAMDYWGQGTLVTVSS
VL: DIQMTQSPSSLSASVGDRVTITCRASQDLATDVAWYQQKPGKAPKLLIYSASFLYSGVPSRFSGSGSGTDFTLTISSLQPEDFATYYCQQSEPEPYTFGQGTKVEIK
notes: Fab heavy chain of duligotuzumab; light chain of duligotuzumab; source: Expi293 transient expression, co-transfection of heavy and light chain vectors, purified (IMAC, Ni Sepharose Excel)
B1: the Kd was 1.9 nM and 1.7 nM; the koff (in general, the rate constant with which the complex falls apart) is 0.0035 s⁻¹ and 0.003 s⁻¹; the kon (commonly a measure of how fast the partners come together) is 1.9e+06 M⁻¹ s⁻¹ and 1.8e+06 M⁻¹ s⁻¹.

B2: matuzumab Fab fragment (Fab, V domains shown)
VH: QVQLVQSGAEVKKPGASVKVSCKASGYTFTSHWMHWVRQAPGQGLEWIGEFNPSNGRTNYNEKFKSKATMTVDTSTNTAYMELSSLRSEDTAVYYCASRDYDYAGRYFDYWGQGTLVTVSS
VL: DIQMTQSPSSLSASVGDRVTITCSASSSVTYMYWYQQKPGKAPKLLIYDTSNLASGVPSRFSGSGSGTDYTFTISSLQPEDIATYYCQQWSSHIFTFGQGTKVEIK
notes: Fab heavy chain of matuzumab; light chain of matuzumab; source: Expi293 transient expression, co-transfection of heavy and light chain vectors, purified (IMAC, Ni Sepharose Excel)
As for B2, the Kd is 93.1 nM and 92.6 nM; the koff was 0.034 s⁻¹ and 0.031 s⁻¹; the kon was 360000 M⁻¹ s⁻¹ and 340000 M⁻¹ s⁻¹.

B3: necitumumab (IMC-11F8) Fab fragment (Fab, V domains shown)
VH: QVQLQESGPGLVKPSQTLSLTCTVSGGSISSGDYYWSWIRQPPGKGLEWIGYIYYSGSTDYNPSLKSRVTMSVDTSKNQFSLKVNSVTAADTAVYYCARVSIFGVGTFDYWGQGTLVTVSS
VL: EIVMTQSPATLSLSPGERATLSCRASQSVSSYLAWYQQKPGQAPRLLIYDASNRATGIPARFSGSGSGTDFTLTISSLEPEDFAVYYCHQYGSTPLTFGGGTKAEIK
notes: Fab heavy chain of necitumumab; light chain of necitumumab; source: Expi293 transient expression, co-transfection of heavy and light chain vectors, purified (IMAC, Ni Sepharose Excel)
As to B3, the Kd is 1.5 nM and 1.6 nM; the koff was 0.0036 s⁻¹ and 0.0059 s⁻¹; the kon is 3.9e+06 M⁻¹ s⁻¹ and 2.2e+06 M⁻¹ s⁻¹.
